Test results from US20110300156A1 (Genmab, published 2011).
Each block holds one binder with its values, some of them ahead of it.

Assays:
[1] = molecular target: T1, murine tissue factor (TF) on transfected HEK293F cells (murine, UniProt P20352 29-294); test: FACS on transfected HEK293F cells, 30 µg/mL antibody [panel G]
T1 construct: whole, on cells; also called murine TF; TFmm
T1 sequence (looked up): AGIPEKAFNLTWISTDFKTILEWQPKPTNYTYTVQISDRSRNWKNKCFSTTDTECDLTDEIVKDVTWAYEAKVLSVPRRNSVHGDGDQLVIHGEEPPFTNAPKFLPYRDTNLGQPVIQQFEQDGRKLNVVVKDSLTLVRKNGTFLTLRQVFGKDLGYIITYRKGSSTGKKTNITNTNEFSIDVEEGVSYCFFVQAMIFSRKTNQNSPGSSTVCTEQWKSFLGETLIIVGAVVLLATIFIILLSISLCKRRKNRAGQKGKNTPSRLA

[2] = molecular target: T2, human tissue factor (TF), membrane-bound on cells (human, UniProt P13726 33-295); test: FACS, A431 cells, 30 µg/mL
T2 construct: whole, on cells; also called cellular TF
Procedure: (§1) Cells were resuspended in PBS (2×10⁶ cells/ml), put in 96-well V-bottom plates (50 μl/well). 50 μl of serially diluted HuMab in FACS buffer (PBS supplemented with 0.1% BSA and 0.02% Na-azide) was added to the cells and incubated for 30 minutes on ice. After washing three times with FACS buffer, 50 μl of phycoerythrin (PE)-conjugated goat anti-human IgGFc (Jackson ImmunoResearch), diluted 1:100 in FACS buffer, was added. After 30 minutes on ice (in the dark), cells were washed three times, and specific binding of the HuMabs was detected by flow cytometry on a FACSCalibur (BD Biosciences). HuMab-KLH was used as a negative control. Mouse anti-TF followed by PE-conjugated anti-mouse IgGFc was used as positive control. Binding curves were analyzed using non-linear regression (sigmoidal dose-response with variable slope) using GraphPad Prism V4.03 software (GraphPad Software, San Diego, Calif., USA).

[3] = molecular target: T2, human tissue factor (TF), …; test: FACS on MDA-MB-231 cells (~900.000 TF molecules/cell) [panel MDA-MB-231 cells]
Procedure: as §1
(§2) Binding of anti-TF HuMabs to membrane-bound TF on cell lines expressing different levels of TF was determined by FACS analysis, essentially as described supra. Mouse anti-TF antibody followed by PE-conjugated anti-mouse IgGFc was used as a positive control. Fluorescence was measured on a FACSCantoII. Binding curves were analyzed essentially as described supra, using GraphPad Prism 5 software. The amount of TF molecules on cell lines was determined by Qifi kit (Dako, Glostrup, Denmark), according to the manufacturer's instructions.

[4] = molecular target: T3, TFECDHis (extracellular domain of tissue factor, amino acid 1-251, with C-terminal His tag) (human, UniProt P13726 33-251); test: ELISA on coated extracellular domain of TF, detection with HRP-conjugated donkey anti-human H+L
T3 construct: range 1-251; The stated range 1-251 starts at residue 1 of NP-001984; also called extracellular domain of TF

[5] = molecular target: T2, human tissue factor (TF), …; test: FACS on AsPC-1 cells (~175.000 TF molecules/cell) [panel AsPC-1 cells]
Procedure: as §1, §2

[6] = molecular target: T2, human tissue factor (TF), …; test: FACS, Bx-PC3 cells
Procedure: as §1

[7] = molecular target: T1, murine tissue factor (TF) on …; test: FACS on transfected HEK293F cells, 30 µg/mL antibody [panel B]
[8] = molecular target: T2, human tissue factor (TF), …; test: FACS, A431 cells
Procedure: as §1

[9] = molecular target: T2, human tissue factor (TF), …; test: FACS, TF transfected CHO cells (S1015-TF), 7.5 µg/mL
Procedure: as §1

[10] = molecular target: T2, human tissue factor (TF), …; test: FACS, MDA-MB-231 cells, 30 µg/mL
Procedure: as §1

[11] = molecular target: T3, TFECDHis (extracellular domain of …); test: SPR BIAcore 3000, HuMab immobilized, TFECDHis analyte
Procedure: Antibody binding to TF was analyzed by surface plasmon resonance in a BIAcore 3000 (GE Healthcare). TFECDHis was used for the analysis. HuMab antibodies (500 resonance units) were immobilized on the CM-5 sensor chip according to the procedure recommended by the manufacturer. Briefly, after surface activation by EDC and NHS HuMab antibody was injected over the activated CM-5 surface in 10 mM sodium-acetate, pH ranging from 4.0 to 5.5 at 5 μl/min. followed by 1 M Ethanolamine for deactivation. Concentration series of TFECDHis in HBS-EP buffer were injected over the immobilized antibodies at a flow rate of 30 μl/min for 180 sec. Regeneration of the HuMab surface was performed by injection of 10 mM Glycine-HCl pH 2.0 or 10 mM sodium acetate pH 3.0. Kinetic analysis was performed using double reference subtraction and model 1:1 (langmuir) binding analysis.

[12] = molecular target: T2, human tissue factor (TF), …; test: FACS, TF transfected CHO cells (S1015-TF)
Procedure: as §1

[13] = molecular target: T3, TFECDHis (extracellular domain of …); test: ELISA, coated TFECDHis, mean of 3
Procedure: The specificity of the obtained anti-TF HuMabs was evaluated by ELISA. ELISA plates (Microlon; Greiner Bio-One) were coated overnight at +4° C. with 0.5 μg/mL of TFECDHis in PBS, pH 7.4. Coated ELISA plates were emptied and blocked for one hour at room temperature with 2% (v/v) chicken serum (Gibco, Paisley, Scotland) in PBS and washed with PBS containing 0.05% Tween 20 (PBST). Subsequently, HuMabs, serially diluted in PBSTC (PBS supplemented with 2% (v/v) chicken serum and 0.05% (v/v) Tween-20), were incubated for 1 hr at RT under shaking conditions (300 rpm). Bound HuMabs were detected using HRP-conjugated goat-anti-human IgG antibodies (Jackson ImmunoResearch) diluted 1:5,000 in PBSTC, which were incubated for 1 hr at RT under shaking conditions (300 rpm). […] HuMab-KLH (a human monoclonal antibody against KLH (keyhole limpet haemocyanin)), was used as a negative control. Mouse anti-human TF (ERL) was used as positive control (HRP labeled anti-mouse IgG as conjugate). Binding curves were analyzed using non-linear regression (sigmoidal dose-response with variable slope) using GraphPad Prism V4.03 software.

TF (Innovin) [14] = molecular target: T4, TF (Innovin) (UniProt P13726 33-295, limits assumed); test: cell-based or functional assay
[15] = molecular target: T2, human tissue factor (TF), …; test: FACS on SK-OV-3 cells (~60.000 TF molecules/cell) [panel SK-OV-3 cells]
Procedure: as §1
as §2, with “Mouse anti-TF antibody followed by PE-conjugated anti-mouse IgGFc was used as a positive control.” left out

[16] = molecular target: T2, human tissue factor (TF), …; test: FACS, Bx-PC3 cells, 30 µg/mL
Procedure: as §1

[17] = molecular target: T2, human tissue factor (TF), …; test: cell-based or functional assay
[18] = molecular target: T2, human tissue factor (TF), …; test: cell-based or functional assay; remark: listed apart in the source
[19] = molecular target: T3, TFECDHis (extracellular domain of …); test: competition ELISA, inhibition of FVIIa (100 nM) binding to coated TFECDHis
Procedure: ELISA plates were coated overnight with TFECDHis (0.5 μg/mL, 100 μL per well). Plates were emptied, blocked with PBS containing 2% (v/v) chicken serum (1 hour, RT), and emptied again. […] Plates were washed and incubated with swine-anti-rabbit IgG-HRP antibody (1:2,500; DAKO). After washing, the immune complexes were visualized using ABTS as a substrate.

TF (Innovin) [20] = molecular target: T4, TF (Innovin); test: cell-based or functional assay; remark: listed apart in the source
[21] = molecular target: T2, human tissue factor (TF), …; test: cell-based or functional assay; remark: listed apart in the source
[22] = molecular target: T1, murine tissue factor (TF) on …; test: FACS on transfected HEK293F cells, 30 µg/mL antibody [panel E]
[23] = molecular target: T2, human tissue factor (TF), …; test: FACS, MDA-MB-231 cells
Procedure: as §1

[24] = molecular target: T1, murine tissue factor (TF) on …; test: FACS on transfected HEK293F cells, 30 µg/mL antibody [panel H]

binding result [1]: no binding (tested: 30 µg/mL)
B1: anti-TF HuMab 042 (antibody, V domains shown)
VH: EVQLLESGGGLVQPGGSLRLSCAASGFTFSSYGMSWVRQAPGKGLEWVSVISGSGGTTYYADSVKGRFTISRDNSKNTLYLQMNSLRAEDTAVYYCAKAPWTYYFDYWGQGTLVTVSS
VL: not shown
notes: Human monoclonal antibody from HuMab mice

Max MFI [2]: 2610
EC50 (read off the curve) [3]: ~0.03 µg/mL
EC50 (read off the curve) [4]: ~0.1 µg/mL
EC50 (read off the curve) [5]: ~0.07 µg/mL
EC50 [6]: 1.01 nM
binding result [7]: no binding (tested: 30 µg/mL)
EC50 [8]: 0.2 nM
Max MFI [9]: 5650
Max MFI [10]: 2140
Kd [11]: 3.15 nM
EC50 [12]: 1.32 nM
EC50 [13]: 0.16 nM
IC50, inhibition of blood coagulation (TF induced clotting time) (TF (Innovin) [14]): 1.6 nM
EC50 (read off the curve) [15]: ~0.02 µg/mL
Max MFI [16]: 1280
B2: anti-TF HuMab 011 (antibody, V domains shown)
VH: EVQLLESGGGLVQPGGSLRLSCAASGFTFSNYAMSWVRQAPGKGLEWVSSISGSGDYTYYTDSVKGRFTISRDNSKNTLYLQMNSLRAEDTAVYYCARSPWGYYLDSWGQGTLVTVSS
VL: DIQMTQSPPSLSASAGDRVTITCRASQGISSRLAWYQQKPEKAPKSLIYAASSLQSGVPSRFSGSGSGTDFTLTISSLQPEDFATYYCQQYNSYPYTFGQGTKLEIK
notes: Human monoclonal antibody from HuMab mice; also called HuMab-TF-11

Max MFI [2]: 3170
EC50 of ADCC, A431 cells [17]: 0.16 nM
EC50 of ADCC, Bx-PC3 cells [17]: 0.15 nM
EC50 of ADCC, MDA-MB-231 cells [17]: 0.24 nM
IC50, inhibition of FVIIa induced IL-8 release (MDA-MB-231) [18]: 23.1 nM
max inhibition of FVIIa induced IL-8 release (MDA-MB-231) [18]: 75.6%
max inhibition [19]: 90%
% max inhibition of FXa generation (TF (Innovin) [20]): 19%
IC50, inhibition of FXa generation (TF (Innovin) [20]): 0.3 nM
EC50 [6]: 0.88 nM
% max inhibition of FVIIa induced ERK phosphorylation (A431) [21]: 66%
IC50, inhibition of FVIIa induced ERK phosphorylation (A431) [21]: 2.16 nM
EC50 [8]: 5.19 nM
Max MFI [9]: 5810
Max MFI [10]: 2250
Kd [11]: 1.97 nM
EC50 [12]: 0.73 nM
EC50 [13]: 0.34 nM
binding result [22]: no binding (tested: 30 µg/mL)
IC50, inhibition of blood coagulation (TF induced clotting time) (TF (Innovin) [14]): 2.3 nM
EC50 [23]: 0.69 nM
Max MFI [16]: 1320
B3: anti-TF HuMab 025 (antibody, V domains shown)
VH: QVQLVESGGGVVQPGRSLRLSCAASGFTFSRYAMHWVRQAPGKGLEWVAVISNDGYNDYYADSVKGRFTVSRDNSKNTLYLQMNSLRAEDTAVYYCARDGQLGRGYFDYWGQGTLVTVSS
VL: EIVLTQSPATLSLSPGERATLSCRASQSVSSYLAWYQQKPGQAPRLLIYDASNRATGIPARFSGSGSGTDFTLTISSLEPEDFAVYYCQQRSNWPLTFGGGTKVEIK
notes: as for B1

Max MFI [2]: 2650
EC50 of ADCC, A431 cells [17]: 0.19 nM
EC50 of ADCC, Bx-PC3 cells [17]: 0.12 nM
EC50 of ADCC, MDA-MB-231 cells [17]: 0.08 nM
IC50, inhibition of FVIIa induced IL-8 release (MDA-MB-231) [18]: 74.6 nM
max inhibition of FVIIa induced IL-8 release (MDA-MB-231) [18]: 17.2%
IC50 [19]: 0.8 nM
max inhibition [19]: 54%
% max inhibition of FXa generation (TF (Innovin) [20]): 3%
EC50 [6]: 1.88 nM
% max inhibition of FVIIa induced ERK phosphorylation (A431) [21]: 45%
IC50, inhibition of FVIIa induced ERK phosphorylation (A431) [21]: > 66.6 nM
EC50 [8]: 1.45 nM
binding result [24]: no binding (tested: 30 µg/mL)
Max MFI [9]: 5020
Max MFI [10]: 1880
EC50 [12]: 2.13 nM
EC50 [23]: 0.87 nM
Max MFI [16]: 1140
B4: anti-TF HuMab 044 (antibody, V domains shown)
VH: QVQLVESGGGVVQPGRSLRLSCAASGFTFSDYAMHWVRQAPGKGLEWVAVIPYDGDNKYYADSVKGRFTISRDNSKNTLYLQMNSLRAEDTAVYYCAREDWGLEVDYWGQGALVTVSS
VL: AIQLTQSPSSLSASVGDRVTITCRASQGINSALAWYQQKPGKAPKLLIYDASSLESGVPSRFSGSGSGTDFTLTISSLQPEDFATYYCQQFNSYPLTFGGGTKVEIK
notes: as for B1
